# Columns and labels:
# [1] = target: v5-tagged full-length GIGYF2 (1–1,320) (human); test: proximity ligation
# [2] = target: v5-tagged full-length GIGYF2 (1–1,320) (human); test: proximity ligation; cells cotransfected with v5-GIGYF2, HA-4EHP and FLAG-empty vector; fixed 24 h after transfection; PLA with v5 and HA antibodies
# Sequence of v5-tagged full-length GIGYF2 (1–1,320) (human) (Q6Y7W6 2-1299): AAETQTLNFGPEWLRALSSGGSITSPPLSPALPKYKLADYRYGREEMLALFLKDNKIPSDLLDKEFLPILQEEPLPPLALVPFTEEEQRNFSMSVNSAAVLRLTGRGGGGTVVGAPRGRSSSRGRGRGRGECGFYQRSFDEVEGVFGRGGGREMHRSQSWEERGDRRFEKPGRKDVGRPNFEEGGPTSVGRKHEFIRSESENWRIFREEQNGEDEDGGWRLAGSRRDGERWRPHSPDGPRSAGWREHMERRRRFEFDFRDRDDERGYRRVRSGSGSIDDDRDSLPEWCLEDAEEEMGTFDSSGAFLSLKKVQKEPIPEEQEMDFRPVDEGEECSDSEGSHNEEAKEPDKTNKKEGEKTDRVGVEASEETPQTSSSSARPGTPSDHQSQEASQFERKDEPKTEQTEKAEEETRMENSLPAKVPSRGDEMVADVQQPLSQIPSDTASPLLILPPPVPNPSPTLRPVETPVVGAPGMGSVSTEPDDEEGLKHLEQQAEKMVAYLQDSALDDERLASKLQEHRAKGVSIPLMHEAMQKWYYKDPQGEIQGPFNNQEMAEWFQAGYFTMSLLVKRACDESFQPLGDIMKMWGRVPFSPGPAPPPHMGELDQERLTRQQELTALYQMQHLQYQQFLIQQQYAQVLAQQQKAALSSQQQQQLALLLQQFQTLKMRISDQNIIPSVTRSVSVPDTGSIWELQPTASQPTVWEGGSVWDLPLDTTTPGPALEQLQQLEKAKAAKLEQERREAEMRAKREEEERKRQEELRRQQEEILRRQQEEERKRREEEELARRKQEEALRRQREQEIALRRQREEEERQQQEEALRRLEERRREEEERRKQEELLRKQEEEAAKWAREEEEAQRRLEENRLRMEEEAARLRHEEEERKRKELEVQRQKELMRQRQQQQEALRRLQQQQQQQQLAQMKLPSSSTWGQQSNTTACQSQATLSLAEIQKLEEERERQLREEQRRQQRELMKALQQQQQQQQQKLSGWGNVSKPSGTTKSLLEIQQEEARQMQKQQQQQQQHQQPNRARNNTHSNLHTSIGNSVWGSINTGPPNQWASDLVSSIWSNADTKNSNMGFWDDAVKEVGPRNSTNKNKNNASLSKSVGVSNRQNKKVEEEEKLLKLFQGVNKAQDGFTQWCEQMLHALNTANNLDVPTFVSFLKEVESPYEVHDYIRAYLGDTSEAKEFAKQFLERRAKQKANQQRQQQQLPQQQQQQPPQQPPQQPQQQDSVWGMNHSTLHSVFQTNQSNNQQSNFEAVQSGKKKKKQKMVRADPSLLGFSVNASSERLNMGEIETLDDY
substance,measurement,setting,value
HA-tagged 4EHP (from UniProt O60573 1-245),PLA punctate per cell (punctate per cell),[1],61
same,PLA punctate per cell (punctate per cell),[2],19.8
